Assay results as given in publication PMC10482915, “Hornerin mediates phosphorylation of the polo-box domain in Plk1 by Chk1 to induce death in mitosis” (Cell Death and Differentiation, 2023).

Target: T1, His-Plk1 WT (human, UniProt P53350 1-603)
T1 construct: polo-like kinase 1 (Plk1), human; PCR product of the human Plk1 gene cloned into pET-28a; also called recombinant His-Plk1; His6-tagged Plk1 WT; source: E. coli BL21 DE3, purified (Ni2+-NTA-agarose)
Assay: pull-down; recombinant Chk1 incubated with recombinant His-Plk1, pulled down with Ni-beads; immunoblotting
Details: both partners purified

T1 sequence (P53350 whole entry): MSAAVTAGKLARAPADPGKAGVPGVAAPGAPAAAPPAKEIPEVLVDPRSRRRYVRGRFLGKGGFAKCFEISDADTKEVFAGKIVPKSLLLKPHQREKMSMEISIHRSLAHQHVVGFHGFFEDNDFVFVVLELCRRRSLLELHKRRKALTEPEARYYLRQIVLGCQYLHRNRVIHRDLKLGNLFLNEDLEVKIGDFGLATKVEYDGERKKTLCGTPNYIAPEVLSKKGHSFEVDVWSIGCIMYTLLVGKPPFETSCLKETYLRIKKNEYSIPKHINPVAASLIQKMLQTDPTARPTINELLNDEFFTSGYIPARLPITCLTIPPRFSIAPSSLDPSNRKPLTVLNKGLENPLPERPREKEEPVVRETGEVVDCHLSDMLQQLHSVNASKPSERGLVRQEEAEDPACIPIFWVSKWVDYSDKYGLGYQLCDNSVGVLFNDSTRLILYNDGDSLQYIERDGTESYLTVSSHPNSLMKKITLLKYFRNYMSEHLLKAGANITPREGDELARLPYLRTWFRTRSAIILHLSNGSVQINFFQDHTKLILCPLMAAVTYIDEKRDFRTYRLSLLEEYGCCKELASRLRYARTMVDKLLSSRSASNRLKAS

binding result: binds
B1: recombinant Chk1 (enzyme, human, UniProt O14757 1-476, looked up)
chain: MAVPFVEDWDLVQTLGEGAYGEVQLAVNRVTEEAVAVKIVDMKRAVDCPENIKKEICINKMLNHENVVKFYGHRREGNIQYLFLEYCSGGELFDRIEPDIGMPEPDAQRFFHQLMAGVVYLHGIGITHRDIKPENLLLDERDNLKISDFGLATVFRYNNRERLLNKMCGTLPYVAPELLKRREFHAEPVDVWSCGIVLTAMLAGELPWDQPSDSCQEYSDWKEKKTYLNPWKKIDSAPLALLHKILVENPSARITIPDIKKDRWYNKPLKKGAKRPRVTSGGVSESPSGFSKHIQSNLDFSPVNSASSEENVKYSSSQPEPRTGLSLWDTSPSYIDKLVQGISFSQPTCPDHMLLNSQLLGTPGSSQNPWQRLVKRMTRFFTKLDADKSYQCLKETCEKLGYQWKKSCMNQVTISTTDRRNNKLIFKVNLLEMDDKILVDFRLSKGDGLEFKRHFLKIKGKLIDIVSSQKIWLPAT
notes: checkpoint kinase 1 (Chk1), human recombinant kinase; the SignalChem kinase is named only for the kinase assay; also called human recombinant Chk1 kinase; checkpoint kinase 1; source: bought: SignalChem (named for the kinase assay)
